{"source": "paper PMC6200926", "about": "(The Journal of Biological Chemistry, 2018)", "binders": {"B1": {"name": "AVFluIgG03 (antibody, V domains shown)", "VH": "EVQLLESGGGLVQPGGSLRVSCTNSGFTFSNYAMSWVRQAPGKGLEWVSAISGNGGSGTYYADSVKGRFTISRDNSKNTMYLQMNSLRAEDTAVYYCVRDDSYDGGGHYGLHNWFDSWGQGTLVTVSS", "VL": "SVLTQPPSVSGAPGQRVTISCTGSSSNIGAGYDVHWYQQLPGTAPKLLIYGNSNRPSGVPDRFSGSKSGTSASLAITGLQAEDEADYYCQSYDSSVVVFGGGTKLEIK"}, "B2": {"name": "FLD21.140 (antibody, V domains shown)", "VH": "QVQLQESGPGLVKPSQTLSLTCTVSGGSISSGTYYWSWIRHHPGKGLEWIGYIYHSGSAYYNPSLESRVTMSVDTSKNQFSLKLSSVTAADTAIYYCARAENLLSPYLAEGFDPWGQGTLVTVSS", "VL": "not shown"}, "B3": {"name": "AVFluIgG03 Fab (Fab, V domains shown)", "VH": "B1 VH", "VL": "B1 VL", "notes": "source: cut from the purified IgG with Lys-C"}, "B4": {"name": "FLD21.140 Fab (Fab, V domains shown)", "VH": "B2 VH", "VL": "not shown"}}, "key": {"[1]": {"target": "T1, A/Beijing/01/2003 HA globular head (Asp-55–Glu-271) (Influenza A virus A/Beijing/01/2003 …, UniProt A5YTS6, strain)", "experiment": "cell-based or functional assay"}, "[2]": {"target": "T2, A/Anhui/1/2005 HA globular head (Asp-55–Glu-271) (Influenza A virus A/Anhui/1/2005 (H5N1), UniProt Q1WDM0, strain)", "experiment": "cell-based or functional assay"}, "[3]": {"target": "T3, A/Thailand/1(KAN-1)/2004 HA globular head (Asp-55–Glu-271) (Influenza A virus …, strain)", "experiment": "cell-based or functional assay"}, "[4]": {"target": "T4, A/Vietnam/1203/2004 HA globular head (Asp-55–Glu-271) (Influenza A virus A/Vietnam/1203/2004 …, UniProt Q5EP31, strain)", "experiment": "cell-based or functional assay"}, "[5]": {"target": "A/Turkey/65596/2006 HA globular head (Asp-55–Glu-271) (Influenza A virus A/Turkey/65596/2006 …, strain)", "experiment": "cell-based or functional assay"}, "[6]": {"target": "T1, A/Beijing/01/2003 HA globular head …", "experiment": "SPR", "conditions": "both partners purified"}, "[7]": {"target": "T2, A/Anhui/1/2005 HA globular head …", "experiment": "SPR", "conditions": "both partners purified"}, "[8]": {"target": "T3, A/Thailand/1(KAN-1)/2004 HA globular …", "experiment": "SPR", "conditions": "both partners purified"}, "[9]": {"target": "T4, A/Vietnam/1203/2004 HA globular head …", "experiment": "SPR", "conditions": "both partners purified"}}, "data": [{"binder": "B1", "values": [{"measurement": "neutralisation IC50, pseudovirus with the whole HA of this strain", "setting": "[1]", "result": 3, "unit": "ng/mL"}, {"measurement": "neutralisation IC50, pseudovirus with the whole HA of this strain", "setting": "[2]", "result": 2, "unit": "ng/mL"}]}, {"binder": "B2", "values": [{"measurement": "neutralisation IC50, pseudovirus with the whole HA of this strain", "setting": "[3]", "result": 8, "unit": "ng/mL"}, {"measurement": "neutralisation IC50, pseudovirus with the whole HA of this strain", "setting": "[4]", "result": 1, "unit": "ng/mL"}, {"measurement": "neutralisation IC50, pseudovirus with the whole HA of this strain", "setting": "[5]", "result": 1, "unit": "ng/mL"}]}, {"binder": "B3", "values": [{"measurement": "Kd", "setting": "[6]", "result": 25, "unit": "nM"}, {"measurement": "Kd", "setting": "[7]", "result": 12.6, "unit": "nM"}]}, {"binder": "B4", "values": [{"measurement": "Kd", "setting": "[8]", "result": 1, "unit": "nM"}, {"measurement": "Kd", "setting": "[9]", "result": 0.702, "unit": "nM"}]}]}
